In patent US20160356794A1 (Merck Sharp & Dohme, published 2016):
No end group written: not given here.

Legend:
[1] = target: h-Tau 441 (human Tau isoform 2-441, Accession No. NP 005901.2) (human, UniProt P10636 2-758); test: SPR, BIAcore CM3 sensor chip, immobilized h-Tau 441
Protocol: The binding affinity (Kd) of the 10H8 and 19G10 mAbs was determined by BIAcore CM3 sensor chip (Biacore, Piscataway, N.J.) using immobilized h-Tau 441 as the capture protein.

PPTREPKKVAVVRTP [2] = target: T1, PPTREPKKVAVVRTP (human); test: RepliTope peptide microarray, immobilized 15-mer, fluorescent secondary antibody
T1 construct: Synthetic peptide covalently immobilized on glass through a hydrophilic linker (RepliTope microarray)
T1 peptide: PPTREPKKVAVVRTP
Source text: (§1) Epitope mapping of clones 10H8 and 19G10 was completed using JPT Peptide Technologies' RepliTope™ peptide microarrays. This technology consists in using purified synthetic peptides chemoselectively and covalently immobilized to the glass surface. An optimized hydrophilic linker moiety is inserted between the glass surface and the antigen derived peptide sequence to avoid false negatives caused by sterical hindrance. The peptides used spanned Tau mid region protein sequence of 166 amino acids between amino acid 104 and amino acid 269 (Tau 166). Peptides of 15 amino acids in length that extended downstream either 1 or 2 amino acids at a time were used in this experiment.
(§2) The assay was performed using an automated TECAN HS4X00 microarray processing station. Microarrays were washed, incubated with blocking buffer for 60 min at 30° C., and subsequently with clones […] and 19G10 diluted in blocking buffer for 120 min at 30° C. Microarrays were washed and incubated with secondary antibody diluted in blocking buffer for 45 min at 30° C. and then dried. The quantification was performed using high resolution fluorescence scanner. The resulting images were analyzed and quantified using spot-recognition software GenePix (Molecular Devices). For each spot, the mean signal intensity was extracted and expressed as arbitraty florescence units.

TREPKKVAVVRTPPK [3] = target: T2, TREPKKVAVVRTPPK (human, also: covalently immobilized on glass through a hydrophilic linker); test: as above
T2 construct: Synthetic peptide covalently immobilized on glass through a hydrophilic linker (RepliTope microarray)
T2 peptide: TREPKKVAVVRTPPK
Source text: as §1, §2

EPKKVAVVRTPPKSP [4] = target: T3, EPKKVAVVRTPPKSP (human); test: as above
T3 construct: Synthetic peptide covalently immobilized on glass through a hydrophilic linker (RepliTope microarray)
T3 peptide: EPKKVAVVRTPPKSP
Source text: as §1, §2

KKVAVVRTPPKSPSS = target: T4, KKVAVVRTPPKSPSS (human); test: as above
T4 construct: Synthetic peptide covalently immobilized on glass through a hydrophilic linker (RepliTope microarray)
T4 peptide: KKVAVVRTPPKSPSS
Source text: as §1, §2

SLPTPPTREPKKVAV [5] = target: T5, SLPTPPTREPKKVAV (human, also: covalently immobilized on glass through a hydrophilic linker); test: as above
T5 construct: Synthetic peptide covalently immobilized on glass through a hydrophilic linker (RepliTope microarray)
T5 peptide: SLPTPPTREPKKVAV
Source text: as §1, §2

LPTPPTREPKKVAVV = target: T6, LPTPPTREPKKVAVV (human); test: as above
T6 construct: Synthetic peptide covalently immobilized on glass through a hydrophilic linker (RepliTope microarray)
T6 peptide: LPTPPTREPKKVAVV
Source text: as §1, §2

PTPPTREPKKVAVVR [6] = target: T7, PTPPTREPKKVAVVR (human); test: as above
T7 construct: Synthetic peptide covalently immobilized on glass through a hydrophilic linker (RepliTope microarray)
T7 peptide: PTPPTREPKKVAVVR
Source text: as §1, §2

TPPTREPKKVAVVRT = target: T8, TPPTREPKKVAVVRT (human, also: covalently immobilized on glass through a hydrophilic linker); test: as above
T8 construct: Synthetic peptide covalently immobilized on glass through a hydrophilic linker (RepliTope microarray)
T8 peptide: TPPTREPKKVAVVRT
Source text: as §1, §2

PPTREPKKVAVVRTP [7] = target: T9, PPTREPKKVAVVRTP (human); test: as above
T9 construct: Synthetic peptide covalently immobilized on glass through a hydrophilic linker (RepliTope microarray)
T9 peptide: PPTREPKKVAVVRTP
Source text: as §1, §2

PTREPKKVAVVRTPP = target: T10, PTREPKKVAVVRTPP (human); test: as above
T10 construct: Synthetic peptide covalently immobilized on glass through a hydrophilic linker (RepliTope microarray)
T10 peptide: PTREPKKVAVVRTPP
Source text: as §1, §2

TREPKKVAVVRTPPK [8] = target: T11, TREPKKVAVVRTPPK (human, also: covalently immobilized on glass through a hydrophilic linker); test: as above
T11 construct: Synthetic peptide covalently immobilized on glass through a hydrophilic linker (RepliTope microarray)
T11 peptide: TREPKKVAVVRTPPK
Source text: as §1, §2

REPKKVAVVRTPPKS = target: T12, REPKKVAVVRTPPKS (human); test: as above
T12 construct: Synthetic peptide covalently immobilized on glass through a hydrophilic linker (RepliTope microarray)
T12 peptide: REPKKVAVVRTPPKS
Source text: as §1, §2

EPKKVAVVRTPPKSP [9] = target: T13, EPKKVAVVRTPPKSP (human); test: as above
T13 construct: Synthetic peptide covalently immobilized on glass through a hydrophilic linker (RepliTope microarray)
T13 peptide: EPKKVAVVRTPPKSP
Source text: as §1, §2

PGSRSRTPSLPTPPT = target: T14, PGSRSRTPSLPTPPT (human); test: as above
T14 construct: Synthetic peptide covalently immobilized on glass through a hydrophilic linker (RepliTope microarray)
T14 peptide: PGSRSRTPSLPTPPT
Source text: as §1, §2

SRSRTPSLPTPPTRE = target: T15, SRSRTPSLPTPPTRE (human, also: covalently immobilized on glass through a hydrophilic linker); test: as above
T15 construct: Synthetic peptide covalently immobilized on glass through a hydrophilic linker (RepliTope microarray)
T15 peptide: SRSRTPSLPTPPTRE
Source text: as §1, §2

[10] = target: T16, … (human); test: as above
T16 construct: Synthetic peptide covalently immobilized on glass through a hydrophilic linker (RepliTope microarray)
Source text: as §1, §2

[11] = target: T17, … (human); test: as above; remark: listed apart in the source
T17 construct: Synthetic peptide covalently immobilized on glass through a hydrophilic linker (RepliTope microarray)
Source text: as §1, §2

SLPTPPTREPKKVAV [12] = target: T18, SLPTPPTREPKKVAV (human, also: covalently immobilized on glass through a hydrophilic linker); test: as above
T18 construct: Synthetic peptide covalently immobilized on glass through a hydrophilic linker (RepliTope microarray)
T18 peptide: SLPTPPTREPKKVAV
Source text: as §1, §2

PTPPTREPKKVAVVR [13] = target: T19, PTPPTREPKKVAVVR (human); test: as above
T19 construct: Synthetic peptide covalently immobilized on glass through a hydrophilic linker (RepliTope microarray)
T19 peptide: PTPPTREPKKVAVVR
Source text: as §1, §2

Chain of h-Tau 441 (human Tau isoform 2-441, Accession No. NP 005901.2) (P10636 other isoform, or with tags, fused parts or gaps limits assumed): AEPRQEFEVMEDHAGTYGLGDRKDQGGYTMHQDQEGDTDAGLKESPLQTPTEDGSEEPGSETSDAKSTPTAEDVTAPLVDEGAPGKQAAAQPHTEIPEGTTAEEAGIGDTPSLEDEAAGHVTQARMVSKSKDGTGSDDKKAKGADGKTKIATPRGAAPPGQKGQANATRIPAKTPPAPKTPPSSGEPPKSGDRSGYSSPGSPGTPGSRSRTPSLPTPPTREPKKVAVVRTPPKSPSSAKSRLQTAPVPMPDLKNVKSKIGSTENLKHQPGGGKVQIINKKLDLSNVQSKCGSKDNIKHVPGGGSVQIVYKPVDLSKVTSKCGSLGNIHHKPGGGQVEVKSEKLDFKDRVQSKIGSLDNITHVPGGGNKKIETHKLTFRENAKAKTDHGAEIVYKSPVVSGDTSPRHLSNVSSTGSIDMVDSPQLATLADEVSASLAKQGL

B1: monoclonal antibody 10H8 (antibody, mouse IgG1, V domains shown)
VH: EVQLQQSGAELVRPGASVKLSCTASGFNIKDEYMNWVKQRPERGLEWIGWIDPENGDAAYASKFQGKATMTADTSSNTAYLQLSSLTSEDTAVYFCTFFYSNYDGYFDVWGAGTTVTVSS
VL: DVLMTQTPLSLPVSLGDQASISCRSSQNIIHSNGSTYLEWYLQKPGQSPKLLIYKVSNRFSGVPDRFSGSGSGTDFTLKISRVEAEDLGIYYCFQGSHVPWTFGGGTKLEIK
notes: also called mAb 10H8; 10H8 mAb
B1 gave a Kd [1] of 17 nM, a koff [1] of 0.000306 s⁻¹ and a kon [1] of 18200 M⁻¹ s⁻¹. For the same binder, the “Fluorescent Intensity” value (PPTREPKKVAVVRTP [2]) was 61100 arbitrary fluorescence units, the “Fluorescent Intensity” value (TREPKKVAVVRTPPK [3]) was 32400 arbitrary fluorescence units and the “Fluorescent Intensity” value (EPKKVAVVRTPPKSP [4]) was 2100 arbitrary fluorescence units. For the same binder, the “Fluorescent Intensity” value (KKVAVVRTPPKSPSS) was 750 arbitrary fluorescence units, the “Fluorescent Intensity” value (SLPTPPTREPKKVAV [5]) was 64400 arbitrary fluorescence units and the “Fluorescent Intensity” value (LPTPPTREPKKVAVV) was 59500 arbitrary fluorescence units. For the same binder, the “Fluorescent Intensity” value (PTPPTREPKKVAVVR [6]) was 64200 arbitrary fluorescence units, the “Fluorescent Intensity” value (TPPTREPKKVAVVRT) was 60600 arbitrary fluorescence units and the “Fluorescent Intensity” value (PPTREPKKVAVVRTP [7]) was 60200 arbitrary fluorescence units. The “Fluorescent Intensity” value (PTREPKKVAVVRTPP) was 64300 arbitrary fluorescence units, the “Fluorescent Intensity” value (TREPKKVAVVRTPPK [8]) was 58800 arbitrary fluorescence units and the “Fluorescent Intensity” value (REPKKVAVVRTPPKS) was 1400 arbitrary fluorescence units. For the same binder, the “Fluorescent Intensity” value (EPKKVAVVRTPPKSP [9]) was 890 arbitrary fluorescence units, the “Fluorescent Intensity” value (PGSRSRTPSLPTPPT) was 570 arbitrary fluorescence units and the “Fluorescent Intensity” value (SRSRTPSLPTPPTRE) was 552 arbitrary fluorescence units. For the same binder, the “Fluorescent Intensity” value [10] was 58000 arbitrary fluorescence units, the “Fluorescent Intensity” value [11] was 56700 arbitrary fluorescence units and the “Fluorescent Intensity” value (SLPTPPTREPKKVAV [12]) was 63900 arbitrary fluorescence units. The “Fluorescent Intensity” value (PTPPTREPKKVAVVR [13]) was 53000 arbitrary fluorescence units.
